17 molecules from PMC11446282 can be followed below.

B1: CDCA4 K44: CDCA4, K44 to alanine (protein, UniProt Q9BXL8 1-241, looked up, variant K44A)
Cell division …: MFARGLKRKCVGHEEDVEGALAGLKTVSSYSLQRQSLLDMSLVALQLCHMLVEPNLCRSVLIANTVRQIQEEMTQDGTWRTVAPQAAERAPLDRLVSTEILCRAAWGQEGAHPAPGLGDGHTQGPVSDLCPVTSAQAPRHLQSSAWEMDGPRENRGSFHKSLDQIFETLETKNPSCMEELFSDVDSPYYDLDTVLTGMMGGARPGPCEGLEGLAPATPGPSSSCKSDLGELDHVVEILVET
B2: CDCA4 I62: CDCA4, I62 to alanine (protein, UniProt Q9BXL8 1-241, looked up, variant I62A)
Cell division …: MFARGLKRKCVGHEEDVEGALAGLKTVSSYSLQRQSLLDMSLVKLQLCHMLVEPNLCRSVLAANTVRQIQEEMTQDGTWRTVAPQAAERAPLDRLVSTEILCRAAWGQEGAHPAPGLGDGHTQGPVSDLCPVTSAQAPRHLQSSAWEMDGPRENRGSFHKSLDQIFETLETKNPSCMEELFSDVDSPYYDLDTVLTGMMGGARPGPCEGLEGLAPATPGPSSSCKSDLGELDHVVEILVET
B3: CDCA4 C57: CDCA4, C57 to alanine (protein, UniProt Q9BXL8 1-241, looked up, variant C57A)
Cell division …: MFARGLKRKCVGHEEDVEGALAGLKTVSSYSLQRQSLLDMSLVKLQLCHMLVEPNLARSVLIANTVRQIQEEMTQDGTWRTVAPQAAERAPLDRLVSTEILCRAAWGQEGAHPAPGLGDGHTQGPVSDLCPVTSAQAPRHLQSSAWEMDGPRENRGSFHKSLDQIFETLETKNPSCMEELFSDVDSPYYDLDTVLTGMMGGARPGPCEGLEGLAPATPGPSSSCKSDLGELDHVVEILVET
B4: CDCA4 V52: CDCA4, V52 to alanine (protein, UniProt Q9BXL8 1-241, looked up, variant V52A)
Cell division …: MFARGLKRKCVGHEEDVEGALAGLKTVSSYSLQRQSLLDMSLVKLQLCHMLAEPNLCRSVLIANTVRQIQEEMTQDGTWRTVAPQAAERAPLDRLVSTEILCRAAWGQEGAHPAPGLGDGHTQGPVSDLCPVTSAQAPRHLQSSAWEMDGPRENRGSFHKSLDQIFETLETKNPSCMEELFSDVDSPYYDLDTVLTGMMGGARPGPCEGLEGLAPATPGPSSSCKSDLGELDHVVEILVET
B5: CDCA4 N64: CDCA4, N64 to alanine (protein, UniProt Q9BXL8 1-241, looked up, variant N64A)
Cell division …: MFARGLKRKCVGHEEDVEGALAGLKTVSSYSLQRQSLLDMSLVKLQLCHMLVEPNLCRSVLIAATVRQIQEEMTQDGTWRTVAPQAAERAPLDRLVSTEILCRAAWGQEGAHPAPGLGDGHTQGPVSDLCPVTSAQAPRHLQSSAWEMDGPRENRGSFHKSLDQIFETLETKNPSCMEELFSDVDSPYYDLDTVLTGMMGGARPGPCEGLEGLAPATPGPSSSCKSDLGELDHVVEILVET
B6: CDCA4 E53: CDCA4, E53 to alanine (protein, UniProt Q9BXL8 1-241, looked up, variant E53A)
Cell division …: MFARGLKRKCVGHEEDVEGALAGLKTVSSYSLQRQSLLDMSLVKLQLCHMLVAPNLCRSVLIANTVRQIQEEMTQDGTWRTVAPQAAERAPLDRLVSTEILCRAAWGQEGAHPAPGLGDGHTQGPVSDLCPVTSAQAPRHLQSSAWEMDGPRENRGSFHKSLDQIFETLETKNPSCMEELFSDVDSPYYDLDTVLTGMMGGARPGPCEGLEGLAPATPGPSSSCKSDLGELDHVVEILVET
B7: CDCA4 N55: CDCA4, N55 to alanine (protein, UniProt Q9BXL8 1-241, looked up, variant N55A)
Cell division …: MFARGLKRKCVGHEEDVEGALAGLKTVSSYSLQRQSLLDMSLVKLQLCHMLVEPALCRSVLIANTVRQIQEEMTQDGTWRTVAPQAAERAPLDRLVSTEILCRAAWGQEGAHPAPGLGDGHTQGPVSDLCPVTSAQAPRHLQSSAWEMDGPRENRGSFHKSLDQIFETLETKNPSCMEELFSDVDSPYYDLDTVLTGMMGGARPGPCEGLEGLAPATPGPSSSCKSDLGELDHVVEILVET
B8: CDCA4 Q46: CDCA4, Q46 to alanine (protein, UniProt Q9BXL8 1-241, looked up, variant Q46A)
Cell division …: MFARGLKRKCVGHEEDVEGALAGLKTVSSYSLQRQSLLDMSLVKLALCHMLVEPNLCRSVLIANTVRQIQEEMTQDGTWRTVAPQAAERAPLDRLVSTEILCRAAWGQEGAHPAPGLGDGHTQGPVSDLCPVTSAQAPRHLQSSAWEMDGPRENRGSFHKSLDQIFETLETKNPSCMEELFSDVDSPYYDLDTVLTGMMGGARPGPCEGLEGLAPATPGPSSSCKSDLGELDHVVEILVET
B9: CDCA4 L56: CDCA4, L56 to alanine (protein, UniProt Q9BXL8 1-241, looked up, variant L56A)
Cell division …: MFARGLKRKCVGHEEDVEGALAGLKTVSSYSLQRQSLLDMSLVKLQLCHMLVEPNACRSVLIANTVRQIQEEMTQDGTWRTVAPQAAERAPLDRLVSTEILCRAAWGQEGAHPAPGLGDGHTQGPVSDLCPVTSAQAPRHLQSSAWEMDGPRENRGSFHKSLDQIFETLETKNPSCMEELFSDVDSPYYDLDTVLTGMMGGARPGPCEGLEGLAPATPGPSSSCKSDLGELDHVVEILVET
B10: CDCA4 P54: CDCA4, P54 to alanine (protein, UniProt Q9BXL8 1-241, looked up, variant P54A)
Cell division …: MFARGLKRKCVGHEEDVEGALAGLKTVSSYSLQRQSLLDMSLVKLQLCHMLVEANLCRSVLIANTVRQIQEEMTQDGTWRTVAPQAAERAPLDRLVSTEILCRAAWGQEGAHPAPGLGDGHTQGPVSDLCPVTSAQAPRHLQSSAWEMDGPRENRGSFHKSLDQIFETLETKNPSCMEELFSDVDSPYYDLDTVLTGMMGGARPGPCEGLEGLAPATPGPSSSCKSDLGELDHVVEILVET
B11: CDCA4 L45: CDCA4, L45 to alanine (protein, UniProt Q9BXL8 1-241, looked up, variant L45A)
Cell division …: MFARGLKRKCVGHEEDVEGALAGLKTVSSYSLQRQSLLDMSLVKAQLCHMLVEPNLCRSVLIANTVRQIQEEMTQDGTWRTVAPQAAERAPLDRLVSTEILCRAAWGQEGAHPAPGLGDGHTQGPVSDLCPVTSAQAPRHLQSSAWEMDGPRENRGSFHKSLDQIFETLETKNPSCMEELFSDVDSPYYDLDTVLTGMMGGARPGPCEGLEGLAPATPGPSSSCKSDLGELDHVVEILVET
B12: CDCA4 S59: CDCA4, S59 to alanine (protein, UniProt Q9BXL8 1-241, looked up, variant S59A)
Cell division …: MFARGLKRKCVGHEEDVEGALAGLKTVSSYSLQRQSLLDMSLVKLQLCHMLVEPNLCRAVLIANTVRQIQEEMTQDGTWRTVAPQAAERAPLDRLVSTEILCRAAWGQEGAHPAPGLGDGHTQGPVSDLCPVTSAQAPRHLQSSAWEMDGPRENRGSFHKSLDQIFETLETKNPSCMEELFSDVDSPYYDLDTVLTGMMGGARPGPCEGLEGLAPATPGPSSSCKSDLGELDHVVEILVET
B13: CDCA4 R58: CDCA4, R58 to alanine (protein, UniProt Q9BXL8 1-241, looked up, variant R58A)
Cell division …: MFARGLKRKCVGHEEDVEGALAGLKTVSSYSLQRQSLLDMSLVKLQLCHMLVEPNLCASVLIANTVRQIQEEMTQDGTWRTVAPQAAERAPLDRLVSTEILCRAAWGQEGAHPAPGLGDGHTQGPVSDLCPVTSAQAPRHLQSSAWEMDGPRENRGSFHKSLDQIFETLETKNPSCMEELFSDVDSPYYDLDTVLTGMMGGARPGPCEGLEGLAPATPGPSSSCKSDLGELDHVVEILVET
B14: CDCA4 V60: CDCA4, V60 to alanine (protein, UniProt Q9BXL8 1-241, looked up, variant V60A)
Cell division …: MFARGLKRKCVGHEEDVEGALAGLKTVSSYSLQRQSLLDMSLVKLQLCHMLVEPNLCRSALIANTVRQIQEEMTQDGTWRTVAPQAAERAPLDRLVSTEILCRAAWGQEGAHPAPGLGDGHTQGPVSDLCPVTSAQAPRHLQSSAWEMDGPRENRGSFHKSLDQIFETLETKNPSCMEELFSDVDSPYYDLDTVLTGMMGGARPGPCEGLEGLAPATPGPSSSCKSDLGELDHVVEILVET
B15: CDCA4 T65: CDCA4, T65 to alanine (protein, UniProt Q9BXL8 1-241, looked up, variant T65A)
Cell division …: MFARGLKRKCVGHEEDVEGALAGLKTVSSYSLQRQSLLDMSLVKLQLCHMLVEPNLCRSVLIANAVRQIQEEMTQDGTWRTVAPQAAERAPLDRLVSTEILCRAAWGQEGAHPAPGLGDGHTQGPVSDLCPVTSAQAPRHLQSSAWEMDGPRENRGSFHKSLDQIFETLETKNPSCMEELFSDVDSPYYDLDTVLTGMMGGARPGPCEGLEGLAPATPGPSSSCKSDLGELDHVVEILVET
B16: CDCA4 L61: CDCA4, L61 to alanine (protein, UniProt Q9BXL8 1-241, looked up, variant L61A)
Cell division …: MFARGLKRKCVGHEEDVEGALAGLKTVSSYSLQRQSLLDMSLVKLQLCHMLVEPNLCRSVAIANTVRQIQEEMTQDGTWRTVAPQAAERAPLDRLVSTEILCRAAWGQEGAHPAPGLGDGHTQGPVSDLCPVTSAQAPRHLQSSAWEMDGPRENRGSFHKSLDQIFETLETKNPSCMEELFSDVDSPYYDLDTVLTGMMGGARPGPCEGLEGLAPATPGPSSSCKSDLGELDHVVEILVET
B17: RBM7 V146: RBM7, V146 to alanine (protein, UniProt Q9Y580 2-266, looked up, variant V146A)
RNA-binding protein 7: GAAAAEADRTLFVGNLETKVTEELLFELFHQAGPVIKVKIPKDKDGKPKQFAFVNFKHEVSVPYAMNLLNGIKLYGRPIKIQFRSGSSHAPQDVSLSYPQHHVGNSSPTSTSPSRYERTMDNMTSSAQIIQRSFSSPENFQRQAAMNSALRQMSYGGKFGSSPLDQSGFSPSVQSHSHSFNQSSSSQWRQGTPSSQRKVRMNSYPYLADRHYSREQRYTDHGSDHHYRGKRDDFFYEDRNHDDWSHDYDNRRDSSRDGKWRSSRH

The first experiment deals with PP2A-B55α. The experiment in a line: Single alanine mutational scan, YFP-tagged interactors immunoprecipitated from HeLa cells, Western blot. Conditions: single alanine mutant of YFP-tagged CDCA4. In kind it is binding, human. Here is the method:
Standard cloning techniques were used throughout. Point mutations were introduced by whole plasmid polymerase chain reaction (PCR). All constructs were fully sequenced. Synthetic DNA was purchased from GeneArt, Life Technologies and cloned into pcDNA5/FRT/TO (Invitrogen) expression vector containing YFP, resulting in the indicated YFP fusion proteins. These constructs were transiently transfected into HeLa cells 24 hours before harvesting cells. Cells were lysed in lysis buffer [50 mM tris-HCl (pH 7.5), 50 mM NaCl, 1 mM EDTA, 1 mM […], and 0.1% NP-40]. Complexes were immunoprecipitated at 4°C in lysis buffer with green fluorescent protein (GFP)–Trap (ChromoTek) and washed in lysis buffer. Precipitated protein complexes were washed three times in lysis buffer, eluted in 2× SDS sample buffer, and subjected to Western blotting or MS as indicated.
Background: A western blot detects proteins with antibodies after separation by electrophoresis.
The molecule B1 showed an Experimental % binding of 22%.
The same measure, in the same setting: in the case of B2 it was 7%; in that of B3, 91%; in that of B4, 82%.
B5 showed an Experimental % binding of 57%.
The same measure, in the same setting: in the case of B6 it was 153%.
The same measure, in the same setting: for B7 the value was 99%.
Still for that read-out and setting: in the case of B8 it was 61%.
In turn, B9 showed an Experimental % binding of 42%.
Still for that read-out and setting: for B10 the value was 66%; for B11, 86%.
Molecule B12 came in with an Experimental % binding of 64%.
For B13, the Experimental % binding turned out to be 37%.
In turn, B14 returned an Experimental % binding of 47%.
The same measure, in the same setting: for B15 the value was 28%.
In the case of B16, the Experimental % binding came to 28%.

Still in this experiment, the particulars now being: single alanine mutant of YFP-tagged RBM7.
In turn, B17 displayed an Experimental % binding of 7%.
